T1: RNA polymerase III subunit C160 (S. cerevisiae, UniProt P04051 1-1460)
T1 sequence: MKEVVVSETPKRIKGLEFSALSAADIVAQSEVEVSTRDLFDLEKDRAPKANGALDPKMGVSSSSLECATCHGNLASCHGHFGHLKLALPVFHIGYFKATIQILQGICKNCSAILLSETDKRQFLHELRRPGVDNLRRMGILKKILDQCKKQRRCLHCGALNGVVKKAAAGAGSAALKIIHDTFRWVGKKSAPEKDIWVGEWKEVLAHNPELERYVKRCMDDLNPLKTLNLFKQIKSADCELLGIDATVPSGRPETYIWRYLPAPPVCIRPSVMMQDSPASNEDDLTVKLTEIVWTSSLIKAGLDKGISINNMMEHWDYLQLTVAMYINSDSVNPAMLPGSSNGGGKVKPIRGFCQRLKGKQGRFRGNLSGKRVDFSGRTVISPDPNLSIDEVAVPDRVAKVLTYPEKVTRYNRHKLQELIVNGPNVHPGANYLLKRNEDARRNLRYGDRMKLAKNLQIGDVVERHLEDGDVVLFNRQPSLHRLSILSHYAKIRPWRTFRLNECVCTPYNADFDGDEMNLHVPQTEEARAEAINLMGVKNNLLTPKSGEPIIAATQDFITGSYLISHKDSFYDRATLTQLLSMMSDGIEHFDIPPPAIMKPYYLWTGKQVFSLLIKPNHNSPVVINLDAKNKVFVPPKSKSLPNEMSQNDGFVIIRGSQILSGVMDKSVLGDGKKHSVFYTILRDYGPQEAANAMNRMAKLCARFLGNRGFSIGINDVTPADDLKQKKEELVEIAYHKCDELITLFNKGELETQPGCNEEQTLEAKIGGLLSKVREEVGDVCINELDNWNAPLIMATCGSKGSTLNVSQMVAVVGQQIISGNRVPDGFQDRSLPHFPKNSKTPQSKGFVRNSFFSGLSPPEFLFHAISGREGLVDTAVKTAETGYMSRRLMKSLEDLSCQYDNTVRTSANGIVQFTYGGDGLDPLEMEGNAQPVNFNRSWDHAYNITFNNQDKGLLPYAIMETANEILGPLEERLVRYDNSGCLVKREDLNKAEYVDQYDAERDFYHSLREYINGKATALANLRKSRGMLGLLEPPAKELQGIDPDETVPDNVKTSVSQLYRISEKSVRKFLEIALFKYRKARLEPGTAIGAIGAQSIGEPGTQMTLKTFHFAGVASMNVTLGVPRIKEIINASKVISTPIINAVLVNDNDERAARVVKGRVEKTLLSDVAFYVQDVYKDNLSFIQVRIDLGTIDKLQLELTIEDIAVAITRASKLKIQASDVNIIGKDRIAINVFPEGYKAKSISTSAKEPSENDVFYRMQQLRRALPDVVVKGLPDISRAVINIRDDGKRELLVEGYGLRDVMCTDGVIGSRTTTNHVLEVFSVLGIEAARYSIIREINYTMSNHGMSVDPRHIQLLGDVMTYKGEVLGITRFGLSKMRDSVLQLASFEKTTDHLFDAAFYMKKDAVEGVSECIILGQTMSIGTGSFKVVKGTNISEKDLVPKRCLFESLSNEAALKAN

B1: Pol III stalk (subunits C17 and C25) (complex, S. cerevisiae)
chain 1: MKVLEERNAFLSDYEVLKFLTDLEKKHLWDQKSLAALKKSRSKGKQNRPYNHPELQGITRNVVNYLSINKNFINQEDEGEERESSGAKDAEKSGISKMSDESFAELMTKLNSFKLFKAEKLQIVNQLPANMVHLYSIVEECDARFDEKTIEEMLEIISGYA
chain 2: MFILSKIADLVRIPPDQFHRDTISAITHQLNNKFANKIIPNVGLCITIYDLLTVEEGQLKPGDGSSYINVTFRAVVFKPFLGEIVTGWISKCTAEGIKVSLLGIFDDIFIPQNMLFEGCYYTPEESAWIWPMDEETKLYFDVNEKIRFRIEREVFVDVKPKSPKERELEERAQLENEIEGKNEETPQNEKPPAYALLGSCQTDGMGLVSWWE
B2: RNA polymerase III stalk subunit C25 (natural protein, S. cerevisiae)
chain: B1 chain 2
B3: RNA polymerase III subunit C82 (natural protein, S. cerevisiae)
chain: MDELLGEALSAENQTGESTVESEKLVTPEDVMTISSLEQRTLNPDLFLYKELVKAHLGERAASVIGMLVALGRLSVRELVEKIDGMDVDSVKTTLVSLTQLRCVKYLQETAISGKKTTYYYYNEEGIHILLYSGLIIDEIITQMRVNDEEEHKQLVAEIVQNVISLGSLTVEDYLSSVTSDSMKYTISSLFVQLCEMGYLIQISKLHYTPIEDLWQFLYEKHYKNIPRNSPLSDLKKRSQAKMNAKTDFAKIINKPNELSQILTVDPKTSLRIVKPTVSLTINLDRFMKGRRSKQLINLAKTRVGSVTAQVYKIALRLTEQKSPKIRDPLTQTGLLQDLEEAKSFQDEAELVEEKTPGLTFNAIDLARHLPAELDLRGSLLSRKPSDNKKRSGSNAAASLPSKKLKTEDGFVIPALPAAVSKSLQESGDTQEEDEEEEDLDADTEDPHSASLINSHLKILASSNFPFLNETKPGVYYVPYSKLMPVLKSSVYEYVIASTLGPSAMRLSRCIRDNKLVSEKIINSTALMKEKDIRSTLASLIRYNSVEIQEVPRTADRSASRAVFLFRCKETHSYNFMRQNLEWNMANLLFKKEKLKQENSTLLKKANRDDVKGRENELLLPSELNQLKMVNERELNVFARLSRLLSLWEVFQMA
B4: RNA polymerase III subunit C31 (natural protein, S. cerevisiae, UniProt P17890 1-251, looked up)
chain: MSSYRGGSRGGGSNYMSNLPFGLGYGDVGKNHITEFPSIPLPINGPITNKERSLAVKYINFGKTVKDGPFYTGSMSLIIDQQENSKSGKRKPNIILDEDDTNDGIERYSDKYLKKRKIGISIDDHPYNLNLFPNELYNVMGINKKKLLAISKFNNADDVFTGTGLQDENIGLSMLAKLKELAEDVDDASTGDGAAKGSKTGEGEDDDLADDDFEEDEDEEDDDDYNAEKYFNNGDDDDYGDEEDPNEEAAF
B5: RNA polymerase III subunit C34 (natural protein, S. cerevisiae)
chain: MSGMIENGLQLSDNAKTLHSQMMSKGIGALFTQQELQKQMGIGSLTDLMSIVQELLDKNLIKLVKQNDELKFQGVLESEAQKKATMSAEEALVYSYIEASGREGIWSKTIKARTNLHQHVVLKCLKSLESQRYVKSVKSVKFPTRKIYMLYSLQPSVDITGGPWFTDGELDIEFINSLLTIVWRFISENTFPNGFKNFENGPKKNVFYAPNVKNYSTTQEILEFITAAQVANVELTPSNIRSLCEVLVYDDKLEKVTHDCYRVTLESILQMNQGEGEPEAGNKALEDEEEFSIFNYFKMFPASKHDKEVVYFDEWTI

Experiments:
Test in all cases: cryo-EM structure
[1] = target: T1, RNA polymerase III subunit C160
[2] = target: B1
[3] = target: B3

Binder: B1
- binding result [1]: binds

Binder: B2
- binding result [1]: binds

Binder: B3
- binding result [1]: binds

Binder: B4
- binding result [2]: binds
- binding result [3]: binds

Binder: B5
- binding result [1]: binds
- binding result [3]: binds

Reference: article PMC4681132 (Nature, 2015)
